Experimental data taken from article doi:10.1101/689042v1.

How the values were obtained:
[1] = substrate: OC[C@@H](O)[C@H](O)[C@H](O)[C@@H](O)CO; experiment: purified protein; assay type: biochemical, Sinorhizobium meliloti; conditions: 1.5 mM NAD+, 20 mM CAPS pH 11
[2] = substrate: OC[C@@H](O)[C@@H](O)[C@H](O)[C@@H](O)CO; experiment: purified protein; assay type: biochemical, Sinorhizobium meliloti; conditions: 1.5 mM NAD+, 20 mM CAPS pH 11

B1: SmoS (SmSmoS) (Sinorhizobium meliloti 1021) (protein)
chain: MKRLEGKSALITGSARGIGRAFAEAYVREGATVAIADIDIERARQAAAEIGPAAYAVQMDVTRQDSIDAAIAATVEHAGGLDILVNNAALFDLAPIVEITRESYEKLFAINVAGTLFTLQAAARQMIAQGRGGKIINMASQAGRRGEALVAIYCATKAAVISLTQSAGLDLIKHRINVNAIAPGVVDGEHWDGVDALFARYENRPRGEKKRLVGEAVPFGRMGTAEDLTGMAIFLASAESDYIVSQTYNVDGGNWMS
Km [1]: 1200 µM | kcat [1]: 3227.1 s⁻¹ | Km [2]: 2500 µM | kcat [2]: 25625.6 s⁻¹
